Data published in article PMC5766252, “Indole-3-acetaldehyde dehydrogenase-dependent auxin synthesis contributes to virulence of Pseudomonas syringae strain DC3000” (PLoS Pathogens, 2018).

B1: Indole-3-acetaldehyde dehydrogenase AldA (PSPTO_0092) (enzyme)
chain: MTTLTRADWEQRAQNLKIEGRAFIQGEYTAAASGETFDCISPVDGRLLAKVASCDAADAQRAVESARSAFDSGAWSRLAPAKRKATMIRFAGLLEQNAEELALLETLDMGKPISDSLGVDIPGGARALSWSGEAIDKLYDEVAATPHDQLGLVTREPVGVVAAIVPWNFPLMMACWKLGPALSTGNSVVLKPSEKSPLTAIRIAQLAIEAGIPAGVLNVLPGYGHTVGKALALHMDVDTVVFTGSTKIAKQLMIYAGESNMKRVWLEAGGKSPNIVFADAPDLQAAADSAASAIAFNQGEVCTAGSRLLVERSIKDRFLPMVIEALGTWKPGNPLDPATNVGALVDTQQMNTVLSYIAAGHTDGARLVAGGKQILQETGGTYVEPTIFDGVNNAMRIAQEEIFGPVLSVLTFDTAEEAIQIANDTPYGLAAAVWTANLSKAHLTARALRAGSVWVNQYDGGDMTAPFGGFKQSGNGRDKSLHAFDKYTELKSTWIKL
notes: AldA (PSPTO_0092), aldehyde dehydrogenase of Pseudomonas syringae pv. tomato strain DC3000; estimated Mr 52.7 kDa without the tag; The full-length CDS is stated for the pET21a-0092 construct; pET28a-AldA was made with the same NdeI and XhoI sites; also called IAAld dehydrogenase; source: E. coli BL21 (DE3), pET28a-AldA, purified (Ni-NTA, Superdex-200 size exclusion); not shown: His6, N-terminal, …

Tests used:
AldA = molecular target: T1, AldA (Pseudomonas syringae group genomosp. 3, UniProt Q88BC5); experiment: X-ray crystal structure of complex; format: binding; details: pH 8.5
T1 construct: gene PSPTO_0092; full-length, N-terminal hexahistidine tag (pET28a, NdeI/XhoI), E. coli BL21(DE3); tetramer; catalytic Cys302

[1] = tested on: NC(=O)c1ccc[n+]([C@@H]2O[C@H](COP(=O)(O)OP(=O)(O)OC[C@H]3O[C@@H](n4cnc5c(N)ncnc54)[C@H](O)[C@@H]3O)[C@@H](O)[C@H]2O)c1; experiment: purified protein; details: 1.0 mM IAAld, 100 mM Tris-HCl pH 8.0, 100 mM KCl, 25 °C, NAD+ varied, varied: cofactor
[2] = tested on: NC(=O)c1ccc[n+]([C@@H]2O[C@H](COP(=O)(O)OP(=O)(O)OC[C@H]3O[C@@H](n4cnc5c(N)ncnc54)[C@H](OP(=O)(O)O)[C@@H]3O)[C@@H](O)[C@H]2O)c1; experiment: purified protein; details: 1.0 mM IAAld, 100 mM Tris-HCl pH 8.0, 100 mM KCl, 25 °C, NADP+ varied, varied: cofactor
O=CCc1c[nH]c2ccccc12 = experiment: purified protein; details: 1.0 mM NAD+, 100 mM Tris-HCl pH 8.0, 100 mM KCl, 25 °C, IAAld varied 0.05-2.5 mM
[3] = molecular target: Aldehyde dehydrogenase AldB (PSPTO_2673) (Pseudomonas syringae pv. tomato strain DC3000); experiment: SEC; His-tagged protein on a Superdex-200 26/60 column in 25 mM Hepes (pH 7.5), 100 mM NaCl; column calibrated with molecular weight standards
[4] = molecular target: Aldehyde dehydrogenase AldC (PSPTO_3644) (Pseudomonas syringae pv. tomato strain DC3000); experiment: as above
[5] = molecular target: the molecule itself; experiment: as above

Molecule	Km [1] [µM]	kcat [1] [s⁻¹]	kcat/Km [1] [M⁻¹ s⁻¹]	Km (O=CCc1c[nH]c2ccccc12)	kcat (O=CCc1c[nH]c2ccccc12) [s⁻¹]	kcat/Km (O=CCc1c[nH]c2ccccc12) [M⁻¹ s⁻¹]	further results
O=C(O)Cc1c[nH]c2ccccc12 [IAA]	–	–	–	–	–	–	X-ray crystal structure of complex (AldA; 5 mM NAD+ and 5 mM IAA, dead-end ternary complex, 1.93 Å, substrate site near Cys302): AldA (5IUU); AldA•NAD^+ (5IUV); and AldA•NAD^+•IAA (5IUW)
NC(=O)c1ccc[n+]([C@@H]2O[C@H](COP(=O)(O)OP(=O)(O)OC[C@H]3O[C@@H](n4cnc5c(N)ncnc54)[C@H](O)[C@@H]3O)[C@@H](O)[C@H]2O)c1 [NAD^+]	–	–	–	–	–	–	X-ray crystal structure of complex (AldA; 5 mM NAD+, cofactor binding site, also in the ternary complex 5IUW): AldA (5IUU); AldA•NAD^+ (5IUV); and AldA•NAD^+•IAA (5IUW)
AldA (Pseudomonas syringae pv. tomato str. DC3000)	42 ± 8	3.23 ± 0.15	77400	119 ± 37 µM	3.9 ± 0.35	32800	Km [2]: 1,960 ± 182 µM; kcat [2]: 0.5 ± 0.0167 s⁻¹; kcat/Km [2]: 252 M⁻¹ s⁻¹
AldB (Pseudomonas syringae pv. tomato str. DC3000)	33.4 ± 9.2	0.035 ± 0.00167	1040	595 ± 39 µM	0.145 ± 0.00333	244	–
AldC (Pseudomonas syringae pv. tomato str. DC3000)	445 ± 99	0.00667 ± 0.000167	14	1,280 ± 161 µM	0.06 ± 0.00333	46	–
Aldehyde dehydrogenase AldB (PSPTO_2673) (enzyme)	–	–	–	–	–	–	stoichiometry N [3]: 4
Aldehyde dehydrogenase AldC (PSPTO_3644) (enzyme)	–	–	–	–	–	–	stoichiometry N [4]: 2
B1	–	–	–	–	–	–	stoichiometry N [5]: 4
